# Reference: the supplement of paper PMC9170038
# Tested on: K4 kissing-loop RNA reporter
# Experiment: apparent KD of K4 kissing-loop reporter; higher = weaker reporter binding
# Details: Eterna round: R107; input ligand: FMN 200 uM
# Description: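 RNA-MaP round R107: designed RNA switches with theophylline, tryptophan, arginine or FMN aptamers are transcribed on-chip within common flanks. They are titrated with a labelled K4 kissing-loop RNA reporter in RNA-MaP buffer (100 mM Tris pH 7.5, 80 mM KCl, 4 mM MgCl2), without ligand or with the indicated ligand. Median apparent KD per design.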
# 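Also: bound reporter read as fluorescence of individual clusters on recovered sequencing chips by microscopy, with normalized cluster intensities fitted with a binding model.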
row,Sequence,apparent KD of K4 kissing-loop reporter [nM]
1,AAUAAGGAGUGAUGUUCCAAGUGAUGUUAACGAGGACCGGUACGGCCGCCACUCGAUACGGCCGGAAAGUAAGAUAAACUACAAU [Same State - Tryptophan A (Freestyle 3)],70.5
2,UAUGAAGGUGGAGGAUAUUGAUUGAACCUUGGUCAGGAGUGAUGUUCCGGGAAGCCUUGGGUUCAUCGAGAAGGCCAAGGAUAGU [Extra 2],139
3,GCCGUAGAUUGAAGGAGCGGACUUAUAGGUCUUAAGGAGUGAUGUUCCUGACACUCGGCGGUCCAGGUAGGUCGCAAUCUACGGC,296
4,UGACAUUGCUCAGAUACCAGACACGAGGAUCACCCGUGUGCCAAAACGUACUAAAUAAGUGUCCCUUGGCAGCUGAGCAAUGUCU [TheoBX 13],78.1
5,GCAUCAUGCUACGAUACCAGAAGUUCCCUUUAGUGUAGUGAUGUUGCAGAUAUUGCUUACUUCCCUUGGCAGCGUUUGACGGGUA [theeternabot_sameState_KL_Theo_B_35],256
6,AAUGCAUUGUGAAGGAGCGCGUUAAGCAGUGAUGUUGCUUUUAUAUUUUUCAGUUUUAUAUCGCAGGUAGGUCGCACUUUGCAUA [JR_Nu_SSArginiB_Sub029],172
7,UUAGGAGUGGAAGGAUAUCCUGGUGUGGGUGGUGUUAGUGAUGUUGGUGGUGCAGUGAUGUUGCGCGGAGAAGGUCCGGUGUUGA [BDazzled - #4 - Exc. FMN B],471
8,UGACUGGACUGAAGGAGCGCGCGAGACAAAGUCUCGAACUGCUAGUGAUGUUAGCAAAUAACGCAGGUAGGUCGCAGUCUAGUCU [ArgBS 11 #SwitchBubble #StaticStem #DoubleMagnet],135
9,AACUGUCAAGGCCAACAUUACUGAGGUGAUACCAGCAUCGAAAGAUGCCCUUGGCAGCACCGACUUGCAGUGAUGUUGCAAGUAA [BrourdMod 12 - Jieux - Exclusion - Theophylline A],329
10,UGCCCGCGCGAAGGAUAUGAGAGCUUGUCUGUCCAGUGAUGUUGGAGGUUGGUGAUUUGCUAGGCGUCAGAAGGUCGAGCUUAUA [theeternabot_sameState_KL_FMN_B_14],192
11,UAAGAGGACCACUACAAGAGUCCUCGAAUACGAGGACCGGUACGGCCGCCACUCGAUAACUUGUAGUGAUGUUGCAAGUAAGAAU [BrourdMod 2 - Jieux - Same State Tryptophan A],80.4
12,UUGGCAGUGAUGUUGCCAGACAUCACCGAAGGAGCGGGCGAAAGCCCAGGUAGGUCGCGGUAGCGGAGUGAUUCUCCGCGAGGGC [Same State Arginine A GF 23],957
13,GCAACAUUGGCAGGAUAUCCUUCUCAGUGAUGUUGAGGGUUCAGCUAACGAAAGUUAGUUGUACCGGGAGAAGGGCUAAUGUUGC [Omei KL FMN B SS A v8],288
14,GCGGCGGGCCAAGGAUAUAUAUUGGAGUGAUGUUGUUCAUUUAUUUGAGCUAGUGAUGUUGGUCAGAUAGAAGGUGGCCCGCCGC [whbob_Ex_FMNB__2th216],76.3
15,CUAUAAGUGCCGAGUGAUGUUCGGCCAAUACGAGGACCGGUACGGCCGCCACUCGGUCAGUCGGUGCCCACCGGGCAUGGCUGAC [Ortima],186
16,UAACUUGCAGUGAUGUUGCAAGAACUGGAUACCAGCAUGGAAACAUGCCCUUGGCAGCCAGAAGGUAUCCUCUUGCAUAGAUACU [Design3],216

row,Sequence,apparent KD of K4 kissing-loop reporter [nM]
1,CACCAUGAAUUCUCUAGGAGUGAUGUUUUUCGAGGACCGGUACGGCCGCCACUCGGACGAGGACCGUGGGAGCGGCGAACCGACU [ddfgmullin],172
2,AGACUUCACCGAAGGAGCGACGUAGCCUAGUGAUGUUAGGCACGAGAGAAAUCUCGUAUACGUCAGGUAGGUCGCGGUGAAGUCA [Omei KL Arginine B SS C v1],196
3,UGUGUUUACCUGACUCAGUGAUGUUGAGAAGGAGCGUUCGAAAGAACAGGUAGGUCGCUCAACCUAAAUUCAGGUGAGCACUAAA,264
4,UGGUUCAAUACGGCCGCCACUGGUGAGUGAUGUUUACCGUCUAUAUCAUGUGUCGAGAGCGCUAUCAGGACCGGGUAGGGACCGU [theeternabot_exclusion_KL_Trp_B_42],673
5,GGAUAGGAUAGAGGAUAUGGCUUACACAGAAAUAACUUGUUGUGUUUAUCCAUAGGGAGUGAUGUUCCAGAAGGCUGUCCUAUCG [MatMod 19 - Jieux - Exclusion - FMN B],743
6,UUGCGGAGUGAUGUUUCGGGAUAUCGGGAAGGAGCGCCGAUAACGGCAGGUAGGUCGCCCGGUCCAGUGAUGUUGGGCAUGCAUU [Exclusion Arg A GF 23],200
7,CUAUGAGUGAUGUUCGUAGGUUGGGCUUGGCAGGAUAUGGGAUCUUCCAGAAGGGCCGAUUCCGGCGAGUGAUGUUCGUUGGUCU [Exclusion FMN A GF30],41.7
8,CCUAUCUCAUACGAUACCAGUCCGAGUGAUGUUCGAACAUAAAUUAGUUUGCCAUAUAAUGACCCUUGGCAGCGUAUGGGAUAGG [Ex Theophylline B K4 12],576
9,UCCACGCUUAGAGGAUAUCGGAUUAGAGUGAUGUUCUAAAGAAGCCCAGUGAUGUUGGAUGGUAUACGAGAAGGCUGUGGCGUGU [Same State FMN B GF 4],254
10,CUUGGAAGGACGGCCGCCACUCGACGGAGUGAUGUUCCGUGUGGGUAGCGCAGUGAUGUUGUGUCGAGGACCGGGUCCUAGGAAU [Exclusion Tryptophan B GF 28],181
11,AAACUUGCAGUGAUGUUGCAAGUAGGUGAUACCAGCAUCGAAAGAUGCCCUUGGCAGCACCAACACUGUAAGUAAGUAUCACCAA [(H1)-(H2)-(T1)-(T2)-(H)'-(T)'_Design2],110
12,UGGACCGCCUGAGGAUAUAGGGACGAGUGAUGUUCGUGGACCAGAGCCAGUGAUGUUGGGUUAUUUCUAGAAGGCGGGCGAACUU [Exclusion FMN B GF11],120
13,GGGUUUGCCGGAAGGAGCGCACUAUGGAGUGAUGUUCCAUGACCGCACAGCUUGCGGUCAGUGCAGGUAGGUCGCCGGUAGCGUU [Maedzaus],205
14,AGAUGGAAUAGAAGGAGCGGCGCCAGUGAUGUUGGAUGCCGCGGGUGAAUCAUGUCAUAGUGCCAGGUAGGUCGCUAUUUCAGCU [Beinveve],104
15,AUGCUUUUAAUAACACUAUAUACAGCUGAAGGAGCGACAAUAAAGUCAGGUAGGUCGCAGAAUAGAUGAGUGAUGUUCAUUUUUA [#05 K4 Arginine A Exclusion],92.8

# Same assay, conditions: Eterna round: R107; input ligand: arginine 13.2 mM
row,Sequence,apparent KD of K4 kissing-loop reporter [nM]
1,AAUAAGGAGUGAUGUUCCAAGUGAUGUUAACGAGGACCGGUACGGCCGCCACUCGAUACGGCCGGAAAGUAAGAUAAACUACAAU [Same State - Tryptophan A (Freestyle 3)],51.3
2,UAUGAAGGUGGAGGAUAUUGAUUGAACCUUGGUCAGGAGUGAUGUUCCGGGAAGCCUUGGGUUCAUCGAGAAGGCCAAGGAUAGU [Extra 2],257
3,GCCGUAGAUUGAAGGAGCGGACUUAUAGGUCUUAAGGAGUGAUGUUCCUGACACUCGGCGGUCCAGGUAGGUCGCAAUCUACGGC,269
4,UGACAUUGCUCAGAUACCAGACACGAGGAUCACCCGUGUGCCAAAACGUACUAAAUAAGUGUCCCUUGGCAGCUGAGCAAUGUCU [TheoBX 13],19.8
5,GCAUCAUGCUACGAUACCAGAAGUUCCCUUUAGUGUAGUGAUGUUGCAGAUAUUGCUUACUUCCCUUGGCAGCGUUUGACGGGUA [theeternabot_sameState_KL_Theo_B_35],205
6,AAUGCAUUGUGAAGGAGCGCGUUAAGCAGUGAUGUUGCUUUUAUAUUUUUCAGUUUUAUAUCGCAGGUAGGUCGCACUUUGCAUA [JR_Nu_SSArginiB_Sub029],158
7,UUAGGAGUGGAAGGAUAUCCUGGUGUGGGUGGUGUUAGUGAUGUUGGUGGUGCAGUGAUGUUGCGCGGAGAAGGUCCGGUGUUGA [BDazzled - #4 - Exc. FMN B],384
